In US20260035452A1 (THE UNIVERSITY OF BIRMINGHAM, priority 2022, published 2026):
Marks after values point to notes of the source that are not given here.

Key:
patients = patients with IBD; cited from earlier work
[1] = Haematological investigations; format: in vivo; details: mice, 100 μg/mouse
Procedure: To assess the neutralising activity of Ab-IPL-IL-17™, CD-1 mice were injected i.p. with 100 μg/mouse of Ab-IPL-IL-17™, MAB421 or secukinumab as positive controls. After 30 min, an i.p. injection of 10 μg/mouse of IL-17A, IL-17F or IL-17A/F heterodimer was administered. After 2 h blood was collected by intracardiac puncture and serum levels of (A) IL-17A, (B) IL-17F or (C) IL-17A/F heterodimer were quantified by Elisa. (C-F) For the evaluation of immunogenic effects CD-1 mice were injected i.p. with 100 μg of IgG1 isotype antibody (vehicle) or IL-17 neutralising antibodies (bimekizumab, secukinumab, MAB421 or Ab-IPL-IL-17™). In the selected time-point (2 h, 24 h, 72 h, 7 days, 14 days and 21 days) total IgG, IgG1, lymphocytes and platelets levels were determined by Elisa and haematological blood count test, respectively. Data are presented as mean±S.D. for n=5 mice per group. Statistical analysis was conducted by one or two-way ANOVA followed by Bonferroni's for multiple comparisons. *P≤0.05, **P≤0.01, ***P≤0.001 vs IL-17 group; ^#P≤0.05, ^##P≤0.01, ^###P≤0.001, ^####P≤0.0001 vs vehicle group.
(§1) Standard laboratory procedures were used for blood sampling and measurements (95). Haematological investigations, for all experimental conditions, including blood count test, leukocyte, and sidereal formula were performed on citrated and not-anticoagulated blood samples, respectively. Serological tests were performed by CELL-DYN Sapphire purchased from Abbott S.R.L. (Milan, Italy). All procedures were conducted under strictly aseptic conditions.
as §1, with “measurements.” for “measurements (95).”

Question: With “Secukinumab: human anti-IL-17A monoclonal antibody” as the substance, how does the “side effect: intestinal inflammation” value (patients) read?
Answer: enhanced intestinal inflammation

Question: What about the “GRA (Granulocytes)” value ([1]; 2 h) of the same substance?
Answer: 0.22 ± 0.16 10^3/μL

Question: What about the “HCT (Hematocrit)” value ([1]; 2 h) of the same substance?
Answer: 29.56 ± 2.26%

Question: And the “HGB (Hemoglobin)” value ([1]; 2 h)?
Answer: 9.92 ± 1.78 g/dL

Question: And the “MCH (Mean Corpuscular Hemoglobin)” value ([1]; 2 h)?
Answer: 17.58 ± 1.42 pg

Question: What about the “MCV (Mean Cell Volume)” value ([1]; 2 h) of the same substance?
Answer: 61.86 ± 8.95 fL

Question: What about the MHCH ([1]; 2 h) of the same substance?
Answer: 30.60 ± 4.27 g/dL

Question: And the MID ([1]; 2 h)?
Answer: 0.38 ± 0.31 10^3/μL

Question: And the “MPV (Mean Platelet Volume)” value ([1]; 2 h)?
Answer: 4.54 ± 0.5771 fL

Question: And the “PCT (Plateletcrit)” value ([1]; 2 h)?
Answer: 0.27 ± 0.08%

Question: What about the “PWD (Platelet Distribution Width)” value ([1]; 2 h) of the same substance?
Answer: 16.30 ± 2.15%

Question: What about the “RBC (Red Blood Cells)” value ([1]; 2 h) of the same substance?
Answer: 5.57 ± 1.18 10^6/μL

Question: And the “RDW (Red blood cells Distribution Width)” value ([1]; 2 h)?
Answer: 18.14 ± 1.87%

Question: And the “WBC (White Blood Cells)” value ([1]; 2 h)?
Answer: 3.96 ± 1.19 10^3/μL

Question: What about the “GRA (Granulocytes)” value ([1]; 24 h) of the same substance?
Answer: 0.24 ± 0.11 10^3/μL

Question: What about the “HCT (Hematocrit)” value ([1]; 24 h) of the same substance?
Answer: 28.86 ± 1.80%

Question: What about the “HGB (Hemoglobin)” value ([1]; 24 h) of the same substance?
Answer: 8.88 ± 1.65 g/dL

Question: What about the “MCH (Mean Corpuscular Hemoglobin)” value ([1]; 24 h) of the same substance?
Answer: 19.10 ± 1.88 pg

Question: And the “MCV (Mean Cell Volume)” value ([1]; 24 h)?
Answer: 63.60 ± 8.78 fL

Question: And the MHCH ([1]; 24 h)?
Answer: 31.54 ± 4.15 g/dL

Question: And the MID ([1]; 24 h)?
Answer: 0.44 ± 0.25 10^3/μL

Question: And the “MPV (Mean Platelet Volume)” value ([1]; 24 h)?
Answer: 5.16 ± 0.8764 fL

Question: And the “PCT (Plateletcrit)” value ([1]; 24 h)?
Answer: 0.25 ± 0.09%

Question: What about the “PWD (Platelet Distribution Width)” value ([1]; 24 h) of the same substance?
Answer: 16.06 ± 2.30%

Question: And the “RBC (Red Blood Cells)” value ([1]; 24 h)?
Answer: 4.48 ± 1.11 10^6/μL

Question: And the “RDW (Red blood cells Distribution Width)” value ([1]; 24 h)?
Answer: 18.24 ± 1.12%

Question: What about the “WBC (White Blood Cells)” value ([1]; 24 h) of the same substance?
Answer: 4.44 ± 1.88 10^3/μL

Question: What about the “GRA (Granulocytes)” value ([1]; 72 h) of the same substance?
Answer: 0.30 ± 0.16 10^3/μL

Question: And the “HCT (Hematocrit)” value ([1]; 72 h)?
Answer: 21.30 ± 5.47** %

Question: And the “HGB (Hemoglobin)” value ([1]; 72 h)?
Answer: 6.92 ± 1.53* g/dL

Question: What about the “MCH (Mean Corpuscular Hemoglobin)” value ([1]; 72 h) of the same substance?
Answer: 21.78 ± 4.20* pg

Question: What about the “MCV (Mean Cell Volume)” value ([1]; 72 h) of the same substance?
Answer: 81.12 ± 8.84 fL

Question: And the MHCH ([1]; 72 h)?
Answer: 30.90 ± 6.72 g/dL

Question: And the MID ([1]; 72 h)?
Answer: 0.40 ± 0.25 10^3/μL

Question: And the “MPV (Mean Platelet Volume)” value ([1]; 72 h)?
Answer: 7.80 ± 1.733**** fL

Question: What about the “PCT (Plateletcrit)” value ([1]; 72 h) of the same substance?
Answer: 0.16 ± 0.06%

Question: What about the “PWD (Platelet Distribution Width)” value ([1]; 72 h) of the same substance?
Answer: 18.02 ± 2.61%

Question: What about the “RBC (Red Blood Cells)” value ([1]; 72 h) of the same substance?
Answer: 3.7 ± 1.05* 10^6/μL

Question: What about the “RDW (Red blood cells Distribution Width)” value ([1]; 72 h) of the same substance?
Answer: 16.86 ± 3.47%

Question: And the “WBC (White Blood Cells)” value ([1]; 72 h)?
Answer: 5.10 ± 2.34 10^3/μL

Question: What about the “GRA (Granulocytes)” value ([1]; 7 d) of the same substance?
Answer: 0.24 ± 0.13 10^3/μL

Question: And the “HCT (Hematocrit)” value ([1]; 7 d)?
Answer: 22.94 ± 4.68* %

Question: What about the “HGB (Hemoglobin)” value ([1]; 7 d) of the same substance?
Answer: 7.76 ± 1.31 g/dL

Question: And the “MCH (Mean Corpuscular Hemoglobin)” value ([1]; 7 d)?
Answer: 21.14 ± 4.82 pg

Question: And the “MCV (Mean Cell Volume)” value ([1]; 7 d)?
Answer: 71.98 ± 8.64 fL

Question: What about the MHCH ([1]; 7 d) of the same substance?
Answer: 29.50 ± 5.03 g/dL

Question: What about the MID ([1]; 7 d) of the same substance?
Answer: 0.40 ± 0.16 10^3/μL

Question: And the “MPV (Mean Platelet Volume)” value ([1]; 7 d)?
Answer: 6.58 ± 1.242* fL

Question: And the “PCT (Plateletcrit)” value ([1]; 7 d)?
Answer: 0.21 ± 0.05%

Question: And the “PWD (Platelet Distribution Width)” value ([1]; 7 d)?
Answer: 15.54 ± 2.91%

Question: What about the “RBC (Red Blood Cells)” value ([1]; 7 d) of the same substance?
Answer: 4.10 ± 0.78 10^6/μL

Question: What about the “RDW (Red blood cells Distribution Width)” value ([1]; 7 d) of the same substance?
Answer: 18.38 ± 1.90%

Question: What about the “WBC (White Blood Cells)” value ([1]; 7 d) of the same substance?
Answer: 4.74 ± 1.30 10^3/μL

Question: What about the “GRA (Granulocytes)” value ([1]; 14 d) of the same substance?
Answer: 0.20 ± 0.10 10^3/μL

Question: What about the “HCT (Hematocrit)” value ([1]; 14 d) of the same substance?
Answer: 27.88 ± 2.63%

Question: And the “HGB (Hemoglobin)” value ([1]; 14 d)?
Answer: 9.480 ± 1.36 g/dL

Question: What about the “MCH (Mean Corpuscular Hemoglobin)” value ([1]; 14 d) of the same substance?
Answer: 17.50 ± 1.09 pg

Question: And the “MCV (Mean Cell Volume)” value ([1]; 14 d)?
Answer: 63.46 ± 8.13 fL

Question: What about the MHCH ([1]; 14 d) of the same substance?
Answer: 29.64 ± 4.38 g/dL

Question: What about the MID ([1]; 14 d) of the same substance?
Answer: 0.38 ± 0.13 10^3/μL

Question: And the “MPV (Mean Platelet Volume)” value ([1]; 14 d)?
Answer: 5.86 ± 0.5128 fL

Question: What about the “PCT (Plateletcrit)” value ([1]; 14 d) of the same substance?
Answer: 0.25 ± 0.05%

Question: And the “PWD (Platelet Distribution Width)” value ([1]; 14 d)?
Answer: 15.98 ± 2.03%

Question: And the “RBC (Red Blood Cells)” value ([1]; 14 d)?
Answer: 5.98 ± 1.42 10^6/μL

Question: What about the “RDW (Red blood cells Distribution Width)” value ([1]; 14 d) of the same substance?
Answer: 18.06 ± 2.06%

Question: What about the “WBC (White Blood Cells)” value ([1]; 14 d) of the same substance?
Answer: 3.08 ± 0.86 10^3/μL

Question: And the “GRA (Granulocytes)” value ([1]; 21 d)?
Answer: 0.20 ± 0.10 10^3/μL

Question: And the “HCT (Hematocrit)” value ([1]; 21 d)?
Answer: 29.04 ± 2.30%

Question: What about the “HGB (Hemoglobin)” value ([1]; 21 d) of the same substance?
Answer: 10.16 ± 1.52 g/dL

Question: What about the “MCH (Mean Corpuscular Hemoglobin)” value ([1]; 21 d) of the same substance?
Answer: 17.62 ± 1.05 pg

Question: And the “MCV (Mean Cell Volume)” value ([1]; 21 d)?
Answer: 62.56 ± 7.90 fL

Question: What about the MHCH ([1]; 21 d) of the same substance?
Answer: 30.34 ± 4.54 g/dL

Question: What about the MID ([1]; 21 d) of the same substance?
Answer: 0.34 ± 0.15 10^3/μL

Question: And the “MPV (Mean Platelet Volume)” value ([1]; 21 d)?
Answer: 4.92 ± 0.4207 fL

Question: What about the “PCT (Plateletcrit)” value ([1]; 21 d) of the same substance?
Answer: 0.28 ± 0.04%

Question: And the “PWD (Platelet Distribution Width)” value ([1]; 21 d)?
Answer: 16.14 ± 1.80%

Question: What about the “RBC (Red Blood Cells)” value ([1]; 21 d) of the same substance?
Answer: 6.25 ± 1.18 10^6/μL

Question: What about the “RDW (Red blood cells Distribution Width)” value ([1]; 21 d) of the same substance?
Answer: 18.34 ± 1.33%

Question: And the “WBC (White Blood Cells)” value ([1]; 21 d)?
Answer: 3.280 ± 1.47 10^3/μL
